According to the nanobody polyreactivity screen of Harvey et al. (2022):

Assay: yeast display, Sf9 membrane polyspecificity reagent, FACS + sequencing; frameworks hold sequencing errors
In short: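 Polyreactivity labels are assigned by the sorting gate from which each nanobody was recovered. The gates were low and high (top ~1%), set on anti-HA fluorescence for expression and streptavidin fluorescence for reagent binding. Before sorting, galactose-induced (36–48 hours) yeast display cells were stained for 1 hour at 4 °C with 10% biotinylated, detergent-solubilized Sf9 membrane reagent.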

Sequence | polyreactivity (PSR sort gate)
QVQLVESGGGLVQAGGSLRLSCAASGSIFRTYVMGWYRQAPGKERELVAAISSSGGRTYYADSVKGRFTISRDNAKNTVYLLMNSLKPEDTAVYYCAAPRTSTRYRLTLQGVNQYDYWGQGTQVTVSS | high polyreactivity
QVQLVESGGGLVQAGGSLRLSCAASGSIFRVYAMGWYRQAPGKERELVAAITNGGNTNYADSVKGRFTISRDNAKNTVYLQMNSLKPEDTAVYYCAATLHRYWYRLYYYWGQGTQVTVSS | high polyreactivity
QVQLVESGGGLVQAGGSLRLSCAASGSIFRVYAMGWYRQAPGKERELVATISGSAGRTYYADSVKGRFTISRDNAKNTVYLQMNSLKPEDTAVYYCAARWYKEYYWGQGTQVTVSS | high polyreactivity
QVQLVESGGGLVQAGGSLRLSCAASGSIFRWNAMGWYRQAPGKERELVAAISKSGGRRYYADSVKGRFTISRDNAKNTVYLQMNSVKPEDTAVYYCAAGYTTTQYYGPQYDYWGQGTQVTVSS | high polyreactivity
QVQLVESGGGLVQAGGSLRLSCAASGSIFRWNAMGWYRQAPGKERELVAGIRWDSGSTYYADSVKGRFTISRDNAKNTVYLQMNSLKPEDTAVYYCAADLFDFLLIDGFAVVTYGYWGQGTQVNVSS | low polyreactivity
QVQLVESGGGLVQAGGSLRLSCAASGSIFRWYAMGWSRQAPGKERELVAAISKSGGTTYYADSVKGRFTISRDNAKNTVYLQMNSLKPEDTAVYYCAARRYPYGGYGYRYDYWGQGTQVTVSS | high polyreactivity
QVQLVESGGGLVQAGGSLRLSCAASGSIFRWYAMGWSRQAPGKERQLVAAIRGNGASTYYADSVKGRFTISRDNAKNTVYLQMNSLKPEDTAVYYCAAYPSFYHSQYGYWGQGTQVTVSS | high polyreactivity
QVQLVESGGGLVQAGGSLRLSCAASGSIFRWYAMGWYRQAPGKERELVAGISSTGGSTYYADSVKGRFTISRDNAKNTVYLQMNSLKPEDTAVYYCAVVSYPSAFRRYNYWGQGTQVTVSS | high polyreactivity
QVQLVESGGGLVQAGGSLRLSCAASGSIFRYNAMGWYRKAPGKEREFVAIISYSGVRTYYADSVKGRFTISRDNAKNTVYLQMNSLKPEDTAVYYCAADFKQKGHRTRTTYWGQGTKVTVSS | high polyreactivity
QVQLVESGGGLVQAGGSLRLSCAASGSIFRYNAMGWYRKAPGKERELVAAIRSGGSTYYADSVKGRFTISRDNAKNTVYLQMNSLKPEDTAVYYCNARRYVGYDYWGQGTQVTVSS | high polyreactivity
QVQLVESGGGLVQAGGSLRLSCAASGSIFRYNAMGWYRQAPGKEREFVAAITRSGGSTYADSVKGRFTISRDNAKNTVYLQMNSLKPEDTAVYYCAATFKWYSHTKPRFDYWGQGTQVTVSS | low polyreactivity
QVQLVESGGGLVQAGGSLRLSCAASGSIFRYNAMGWYRQAPGKERELVAAIDWSGGTYYADSVKGRFTISRDNAKNTVYLQMNSLKPEDTAVYYCNARGSKYSSYWGYDYWGQGTQVTVSS | low polyreactivity
QVQLVESGGGLVQAGGSLRLSCAASGSIFRYNAMGWYRQAPGKERELVAAISTSGGSTYYADSVKGRFTISRDNAKNTVYLQMNSLKPEDTAVYYCNKLRNSDSRGIVWYGYWGQGTQVTVSS | high polyreactivity
QVQLVESGGGLVQAGGSLRLSCAASGSIFRYNAMGWYRQAPGKERELVAAITSGDSTYYADSVKGRFTISRDNAKNTVYLQMISLKPEDTAVYYCAADDWRPFDGYYPLKSEREYWGQGTEVTVSS | low polyreactivity
QVQLVESGGGLVQAGGSLRLSCAASGSIFRYNAMGWYRQAPGKERELVAAITWSGGSTYYADSVKGRFTISRDNAKNSVYLQMNSLKPEDTAVYYCAASPYPHYRRYTGGFYYWGQGTQVTVSS | high polyreactivity
QVQLVESGGGLVQAGGSLRLSCAASGSIFRYNAMGWYRQAPGKETELVAAISASGGRTHYADSVKGRFTISRDNAKNTVYLQMNSLKPEDTAVYYCAAATYRGTSLYGYWGQGTQVTVSS | high polyreactivity
QVQLVESGGGLVQAGGSLRLSCAASGSIFRYNTMGWYRQAPGKERELVATITRRGGSTYYADSVKGRFTISRDNAKNTVYLQMNSLKPEDTAVYYCNADNFGGPYNYWGQGTQVTVSS | low polyreactivity
QVQLVESGGGLVQAGGSLRLSCAASGSIFRYYAKGWYRHAPGKERELVAVISRSGTRTYYADSVKGRFTISRDNAKNTVYLQMNSLKPEDTAVYYCAAKDERRSFGMGYWGQGTQVTVSS | high polyreactivity
QVQLVESGGGLVQAGGSLRLSCAASGSIFRYYAMGGYIQAPGKERELVAAISGDSGRTYYADSVKGRFTISRDNAKNTVYFQMNSLNPDDTAVYYCNARVAYRYRTGYDYWGQGTQVTVSS | high polyreactivity
QVQLVESGGGLVQAGGSLRLSCAASGSIFRYYAMGWYIQAPGKERELVAAISYSGGTTYYADSVKGRFTISRDNAKNTVYLQMNSLKPEDTAVYYCAVPLIGVDGYAYDYWGQGTQVTVSS | low polyreactivity
QVQLVESGGGLVQAGGSLRLSCAASGSIFRYYAMGWYRQAPGKEREFVASITYRGGRTYYADSVKGRFTISRDNAKNTVYLQMNSLKPEDTAVYYCAARTRAGAWTSKYLDYWGQGTQVTVSS | high polyreactivity
QVQLVESGGGLVQAGGSLRLSCAASGSIFRYYAMGWYRQAPGKERELVAAISSSGGSTYYADSVKGRFTISRDNAKNTVYLQMNSLKPEDTAGYYCAAVYTQSNSATMYYWGQGTQVTVSS | high polyreactivity
QVQLVESGGGLVQAGGSLRLSCAASGSIFRYYAMGWYRQAPGKERELVANISRGGRTYYADSVKGRFTISRDNAKYTVYLQLHSLNPEDTSVYYCAAGYWFSYSRVTRYDYWGQGTQVTVSS | high polyreactivity
QVQLVESGGGLVQAGGSLRLSCAASGSIFRYYAMGWYRQAPGKETEFGADISASGGSTYYADSVKGRFTISRDNAQNTVYLQMNSLKPEDNAVYYWAARYSYRRPGGYQLGSWGQGTQVTVSS | high polyreactivity
QVQLVESGGGLVQAGGSLRLSCAASGSIFRYYAMGWYRQAPGQERELVAAISRRGSSTYYADSVKGRFTISRDNAKNTVYLQLNSLKPEDTAVYYCAARSRHSGLTQPTLDYWGQGTQVTVSS | high polyreactivity
QVQLVESGGGLVQAGGSLRLSCAASGSIFRYYAMGWYRRAPGKERELVAAISRRGSSTYYADSVKGRFTISRDNAKNTVYLQMNSLKPEDTAVYYCAAGDFKQYDYWGQGTQVTVSS | high polyreactivity
QVQLVESGGGLVQAGGSLRLSCAASGSIFSANAMGWYRQAPGKERELVAAISRSGGRTYYADSVKGRFTISRDNAKNTVYLQMNSLKPEDTAVYYCAADKSRYSVGYDYWGQGTQVTVSS | high polyreactivity
QVQLVESGGGLVQAGGSLRLSCAASGSIFSANTMGWYRQEPGKEREFVAGITTSAGRTYYADSVKGRFTISRDNAKNTVYLQMNSLKPEDTAVYYCAARVWRSYNYWGQGTQVTVSS | high polyreactivity
QVQLVESGGGLVQAGGSLRLSCAASGSIFSDNVMGGYRQAPGKERELVAAIRDGDTTNYADSVKGRFTISRDNAKNTVYLQMNSLKPEDTAVYYCATRNTWYHRGYDYWGQGTQVTVSS | low polyreactivity
QVQLVESGGGLVQAGGSLRLSCAASGSIFSDNVMGWYRQAPGKERELVAAIRDGDTTNYADSVKGRFTISRDNAKNTVYLQMNCLKPEDTAVYYCAAVQASSPDYSYAYLDGDRDYWGQGTQVTVSS | low polyreactivity
